# Measured values published in the nanobody polyreactivity screen of Harvey et al. (2022).
# Assay: yeast display, Sf9 membrane polyspecificity reagent, FACS + sequencing; frameworks hold sequencing errors
# In short: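 Sorting gates, low and high (top ~1%), were placed on anti-HA fluorescence to track expression and on streptavidin fluorescence to track reagent binding. A clone's polyreactivity label is taken from the gate it came out of. The reagent was 10% biotinylated, detergent-solubilized Sf9 membrane, applied for 1 hour at 4 °C to galactose-induced yeast display cells.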
row,Sequence,polyreactivity (PSR sort gate)
1,QVQLVESGGGLVQAGGSLRLSCAASGFILRAYAIGWYRQAPGKERELVAAITSATSTNYADSVKGRFTISRDNAKNTVYLQMNSLKPEDTAVYYCAADGGGGEFSYDSWGQGTQVTVSS,low polyreactivity
2,QVQLVESGGGLVQAGGSLRLSCAASGFILRYNAMGWYRQAPGKEREFVAAITRGATTTYADSVKGRFTISRDNAKNTVYLQMNRLKPEDTAVYYCAKRYHGYISQGQLWERIYDYWGQGTQVTVSS,low polyreactivity
3,QVQLVESGGGLVQAGGSLRLSCAASGFILSHYVMGWYRPAPGKERELVATIRNVGSTKYADSVKGRFTISRDNAKNTVYLQMNSLKPEDTAVYYCNARRWEGYYEFNYWGQGTQVTVSS,low polyreactivity
4,QVQLVESGGGLVQAGGSLRLSCAASGFILYDNTMGWYRQAPGKEREFVAAIRDSGGSTYYADSVKGRFTISRDNAKNTVYLQMNSLKPEDTAVYYCNTYGSGTHSTGYDYWGQGTQVTVSS,low polyreactivity
5,QVQLVESGGGLVQAGGSLRLSCAASGFILYGNTMGWYRQAPGKERELVAAISWSGGNTRYADSVKARFTISRDNAKNTVYLQMNSLQPEDTAVYYCAAYSNYVWSIRRDYWGQGTQVTVSS,low polyreactivity
6,QVQLVESGGGLVQAGGSLRLSCAASGFILYRNAMGWYRQAPGKERELVAAISRNGGSTYYADSVKGRFTISRDNAKNTFYLQMNSLKPEDTAVYYCAARTVGRKAGFDYWGQGTQVTVSS,high polyreactivity
7,QVQLVESGGGLVQAGGSLRLSCAASGFILYYYAMGWYRQAPGKERELVASISRRGGSTYYADSVKGRFTISRDNAKHTVYLQMNSLKPEDTAVYYCNAYSTYIKYDYWGHGTQVTVSS,high polyreactivity
8,QVQLVESGGGLVQAGGSLRLSCAASGFIQPYNTMGWYRQAPGKEREFVAAINYSGGRTYYADSVKGRFTISRDNAKNTVYLQMNRLKPEDTAVYYCAAARYPYRYKYNYWGQGTQVTVSS,high polyreactivity
9,QVQLVESGGGLVQAGGSLRLSCAASGFISARYAMGWYRQAPGKERELVAGISGGGGRTYYADSVKGRFTISRDNAKNTVYLQMNSLKPEDTAVYYCASTQQSRDRRFNYWGQGTQVTVSS,high polyreactivity
10,QVQLVESGGGLVQAGGSLRLSCAASGFISFGNGMGWYRQAPGKERELVAAITRRGGSTYYADSVKGLFTISRDNAKNTVYLQMNSLKPEDTAVYYCDARYLGSTSTNRPPMDYWGQGTQVTVSS,high polyreactivity
11,QVQLVESGGGLVQAGGSLRLSCAASGFISGGNAMGWYRQAPGKEREFVAAIDNTGSTYYADSVKGRFTISRDNAKNTVYLQMNSLKPEDTAVYYCNAEVSEDYVDNDYWGQGTQVTVSS,low polyreactivity
12,QVQLVESGGGLVQAGGSLRLSCAASGFISGSYAMGWYRQAPGKDREFVASISLSDGSTTYADSVKGRFTISRDTAKNPVYLQMNSLKPEDTAVYYCAVQFYYPFTGGTIYEYWGQGTQVTVAS,low polyreactivity
13,QVQLVESGGGLVQAGGSLRLSCAASGFISPSYAMGWYRQAPGKERELVAAIRSSDGSTYYADSVKGRFTISRDNAKNTVYLQMNSLKPEDTAVYYCAAGGSYYRDDYWGQGTQVTVSS,low polyreactivity
14,QVQLVESGGGLVQAGGSLRLSCAASGFISQFYAMGWYRQAPGKERELVAAINWRGDSTYYADSVKGRFTISRDNAKNTVYLQMNSLKPEVTAVYYCAAENWSGYDYWGQGTQVTVSS,high polyreactivity
15,QVQLVESGGGLVQAGGSLRLSCAASGFISRYAMGLYRQAPGKERELVAAINRSGGRTYYADSVKGRFTISRDNAKNTVYLQMNSLKPEDTAVYYCAAERSSSYTYDFWGQGTQVTVSS,high polyreactivity
16,QVQLVESGGGLVQAGGSLRLSCAASGFISVRNAMGWYRQAPGKERELVAAISSGDTTDYADSVKGRFTISRDNAKNTVSLQMNSLKAEDTAVYYCAAVYYGRYYYWGQGTQVTVSS,low polyreactivity
17,QVQLVESGGGLVQAGGSLRLSCAASGFISYTYMGWYRQAPGKERELVAGITGSGGSTYYADSVKGRFTISRDNAKNTVYLQMNSLKPEDTAVYYCAAERPRRSPDGLNYWGQGTQVTVSS,high polyreactivity
18,QVQLVESGGGLVQAGGSLRLSCAASGFIVASNAMGGDRQAPGKVRELLAAINSSAGSTYYADSVKGRFTISRDNAKNTVYLQMNSQKPEDTAVYYCNRDDGSVYRRHRRPYYYWGQRTQVTVSS,low polyreactivity
19,QVQLVESGGGLVQAGGSLRLSCAASGFIVYTYAMGWYRPAPGKERELVAAISIGGRTNYADSVKGRFTISRDNAKNTVSLQMNSLKPEDTARYYCAARGYKRIGYWGQGTLVTVSS,high polyreactivity
20,QVQLVESGGGLVQAGGSLRLSCAASGFIYGRNAMGWYRQAPGKERELVAAINWRGGSTYYADSVKGRFTISRDNAKNTVYLQMNSLKAEDTAVYYCAARAPYRYGYDYWGQGTQVTLSS,high polyreactivity
21,QVQLVESGGGLVQAGGSLRLSCAASGFIYSKYAMRWYRQAPGKERELVAAITFSGGSTYYADSVKGRFTISRDNAKKTVYLQMNSLKPEDTAVYYCNAEGSYPDVSPVLGYDYWGQGTQVTVSS,low polyreactivity
